± gives the uncertainty stated by the source.
B1: POU domain, class 2, transcription factor 3, residues 186 to 260; numbered along this chain, Q9UKI9 (parent)
chain: SDLEELEKFAKTFKQRRIKLGFTQGDVGLAMGKLYGNDFSQTTISRFEALNLSFKNMCKLKPLLEKWLNDAESSP

Variants of: B1
Assay: abundance fitness (aPCA) (normalised: wild type 0, dead -1); higher = more abundant; growth selection in yeast, the domain comes from the species named
Details: Homo sapiens

Variant | abundance fitness
S45R | -0.024 ± 0.023
S45T | -0.036 ± 0.03
S45V | -0.077 ± 0.026
S45W | -0.138 ± 0.03
S45Y | -0.099 ± 0.043
R46A | 0.015 ± 0.037
R46D | 0.009 ± 0.058
R46E | 0.035 ± 0.036
R46G | -0.009 ± 0.024
R46H | -0.038 ± 0.053
R46I | -0.745 ± 0.26
R46K | 0.052 ± 0.045
R46L | -0.05 ± 0.035
R46M | -0.001 ± 0.044
R46N | 0.011 ± 0.056
R46P | -0.986 ± 0.23
R46Q | 0.014 ± 0.049
R46S | -0.008 ± 0.035
R46T | -0.181 ± 0.047
R46V | -0.542 ± 0.048
R46W | -0.428 ± 0.043
R46Y | -0.097 ± 0.096
F47A | -0.712 ± 0.069
F47C | -0.845 ± 0.14

Variant | abundance fitness
F47D | -0.985 ± 0.32
F47E | -0.942 ± 0.13
F47G | -0.925 ± 0.063
F47I | -0.433 ± 0.11
F47K | -1.15 ± 0.28
F47L | -0.098 ± 0.037
F47M | -0.279 ± 0.053
F47N | -0.932 ± 0.34
F47P | -1.09 ± 0.25
F47Q | -1.22 ± 0.34
F47R | -1.08 ± 0.092
F47S | -0.915 ± 0.17
F47T | -0.812 ± 0.13
F47V | -0.346 ± 0.037
F47W | -0.27 ± 0.045
F47Y | -0.222 ± 0.066
E48C | -0.871 ± 0.16
E48D | -1.11 ± 0.39
E48F | -0.708 ± 0.12
E48G | -1.04 ± 0.14
E48H | -1.19 ± 0.25
E48I | -1.02 ± 0.18
E48K | -0.705 ± 0.081
E48L | -0.836 ± 0.08

Variant | abundance fitness
E48M | -0.798 ± 0.1
E48N | -0.871 ± 0.18
E48P | -0.994 ± 0.12
E48Q | -1.16 ± 0.19
E48S | -0.912 ± 0.086
E48T | -1.25 ± 0.21
E48V | -1.04 ± 0.13
E48W | -1.17 ± 0.38
A49F | -0.274 ± 0.29
A49H | 0.014 ± 0.15
A49K | -0.315 ± 0.4
A49L | -0.197 ± 0.12
A49M | -0.201 ± 0.11
A49P | -0.384 ± 0.21
A49Q | 0.133 ± 0.27
A49R | -0.036 ± 0.13
A49S | 0.089 ± 0.17
A49T | -0.253 ± 0.25
A49V | 0.011 ± 0.16
L50A | 0.017 ± 0.033
L50C | -0.078 ± 0.069
L50D | -0.204 ± 0.082
L50E | -0.165 ± 0.04
L50G | 0.031 ± 0.027

Variant | abundance fitness
L50H | 0.142 ± 0.091
L50K | -0.051 ± 0.048
L50M | -0.02 ± 0.045
L50N | 0.087 ± 0.07
L50Q | -0.055 ± 0.067
L50R | 0.009 ± 0.031
L50S | 0.031 ± 0.041
L50T | -0.003 ± 0.047
L50W | -0.105 ± 0.044
L50Y | -0.077 ± 0.07
N51C | -0.076 ± 0.058
N51D | -0.008 ± 0.089
N51E | -0.078 ± 0.048
N51G | -0.01 ± 0.031
N51H | 0.107 ± 0.098
N51I | -0.151 ± 0.068
N51K | 0.069 ± 0.051
N51L | -0.035 ± 0.044
N51M | -0.022 ± 0.057
N51P | -0.844 ± 0.2
N51Q | -0.011 ± 0.056
N51S | 0.043 ± 0.034
N51T | 0.007 ± 0.05
N51V | -0.1 ± 0.039

Variant | abundance fitness
N51W | -0.282 ± 0.044
N51Y | -0.188 ± 0.1
L52A | -0.148 ± 0.039
L52C | -0.107 ± 0.062
L52D | -0.021 ± 0.11
L52E | -0.131 ± 0.044
L52F | -0.231 ± 0.08
L52G | -0.149 ± 0.027
L52I | -0.183 ± 0.094
L52K | -0.618 ± 0.084
L52M | -0.004 ± 0.044
L52N | -0.444 ± 0.1
L52P | -0.972 ± 0.19
L52R | -0.717 ± 0.048
L52S | -0.25 ± 0.043
L52W | -0.201 ± 0.034
S53D | -0.04 ± 0.049
S53E | -0.061 ± 0.041
S53F | -0.66 ± 0.24
S53G | 0.015 ± 0.026
S53H | -0.205 ± 0.094
S53I | -0.556 ± 0.18
S53K | -0.091 ± 0.045
S53L | -0.768 ± 0.066

Variant | abundance fitness
S53M | -0.608 ± 0.081
S53N | 0.03 ± 0.062
S53P | -0.032 ± 0.052
S53Q | -0.077 ± 0.055
S53R | -0.093 ± 0.031
S53T | 0.002 ± 0.048
S53V | -0.598 ± 0.043
S53W | -0.958 ± 0.099
F54A | 0.013 ± 0.032
F54C | -0.068 ± 0.046
F54D | -0.063 ± 0.046
F54E | 0.018 ± 0.038
F54G | -0.05 ± 0.026
F54H | 0.033 ± 0.082
F54I | -0.006 ± 0.054
F54K | 0.014 ± 0.043
F54L | -0.041 ± 0.033
F54M | 0.057 ± 0.049
F54N | -0.037 ± 0.072
F54P | -0.041 ± 0.042
F54Q | -0.025 ± 0.047
F54R | 0.024 ± 0.026
F54S | -0.059 ± 0.034
F54T | 0.013 ± 0.041

Variant | abundance fitness
F54V | -0.012 ± 0.03
F54W | -0.024 ± 0.032
F54Y | 0.115 ± 0.058
K55C | -0.033 ± 0.078
K55D | 0.037 ± 0.052
K55E | 0.016 ± 0.042
K55F | -0.031 ± 0.068
K55G | 0.009 ± 0.029
K55H | -0.132 ± 0.099
K55I | -0.12 ± 0.13
K55L | 0.001 ± 0.039
K55M | -0.052 ± 0.047
K55N | -0.152 ± 0.066
K55P | -0.155 ± 0.06
K55Q | 0.046 ± 0.046
K55R | -0.015 ± 0.028
K55S | 0.011 ± 0.036
K55T | -0.003 ± 0.047
K55V | -0.006 ± 0.034
K55W | -0.093 ± 0.042
K55Y | 0.069 ± 0.081
N56A | 0.018 ± 0.035
N56C | -0.016 ± 0.057

Reference: the Human Domainome abundance scans (Beltran et al. 2025)
